T1: Colicin N (E. coli, UniProt P08083 1-387)
T1 sequence (looked up): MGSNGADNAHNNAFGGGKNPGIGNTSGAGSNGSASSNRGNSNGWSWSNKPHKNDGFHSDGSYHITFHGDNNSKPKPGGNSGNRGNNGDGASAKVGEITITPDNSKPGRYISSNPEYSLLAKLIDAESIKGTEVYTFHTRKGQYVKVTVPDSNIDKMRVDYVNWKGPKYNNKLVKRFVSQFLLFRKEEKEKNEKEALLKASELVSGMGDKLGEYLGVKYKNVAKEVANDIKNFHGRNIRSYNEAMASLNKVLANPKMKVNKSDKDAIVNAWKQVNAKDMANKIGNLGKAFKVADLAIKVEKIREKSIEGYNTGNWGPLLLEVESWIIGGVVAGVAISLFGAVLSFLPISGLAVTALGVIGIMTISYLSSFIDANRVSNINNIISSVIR

B1: OmpF (natural protein, E. coli, UniProt P02931 23-362, looked up)
chain: AEIYNKDGNKVDLYGKAVGLHYFSKGNGENSYGGNGDMTYARLGFKGETQINSDLTGYGQWEYNFQGNNSEGADAQTGNKTRLAFAGLKYADVGSFDYGRNYGVVYDALGYTDMLPEFGGDTAYSDDFFVGRVGGVATYRNSNFFGLVDGLNFAVQYLGKNERDTARRSNGDGVGGSISYEYEGFGIVGAYGAADRTNLQEAQPLGNGKKAEQWATGLKYDANNIYLAANYGETRNATPITNKFTNTSGFANKTQDVLLVAQYQFDFGLRPSIAYTKSKAKDVEGIGDVDLVNYFEVGATYYFNKNMSTYVDYIINQIDSDNKLGVGSDDTVAVGIVYQF

How the values were obtained:
[1] = biological target: B1; assay: ITC
[2] = biological target: T1, Colicin N; assay: ITC

Row | Kd [1] | dH [1] | stoichiometry N [1] | binding result [2] | Binder
1 | 3.48 µM | -19.1 kcal/mol | 2.29 |  | ColN-T (isolated unstructured T-domain of colicin N) (domain or fragment, E. coli, UniProt P08083 1-90, looked up) MGSNGADNAHNNAFGGGKNPGIGNTSGAGSNGSASSNRGNSNGWSWSNKPHKNDGFHSDGSYHITFHGDNNSKPKPGGNSGNRGNNGDGA
2 |  |  |  | binds | B1

Source: publication PMC3739937 (Molecular Microbiology, 2013)
